Measured values taken from publication PMC4766470.
pKd: −log10 of the molar value.

Assays:
[1] = target: NTR1-Y06, expressed in Sf9 insect cells (rat) (UniProt P20789); experiment: radioligand binding; saturation binding; diluted Sf9 membranes with [3H]-labelled ligand at 30-0.02 nM, 4 °C, 2 h, 50 mM Tris-HCl pH 7.4, 1 mM EDTA, 0.1% BSA; nonspecific binding with 1000-fold excess of unlabelled ligand; filtration; apparent constants
[2] = target: neurotensin receptor 1 (wild type), expressed in Sf9 insect cells (rat) (UniProt P20789); experiment: as above

pKd [1]: 8.52
pKd [2]: 8.52
Substance: [3,11-tyrosyl-3,5-3H(N)]-neurotensin (peptide)
